Results published in patent publication US9617330B2, “Chemorepulsion of cells” (Celtaxsys, Inc., priority 2006, dated 2017).

B1: Semaphorin 3F: semaphorin (protein, UniProt Q13275 19-785, looked up)
Semaphorin-3F: SFPTQDHLPATPRVRLSFKELKATGTAHFFNFLLNTTDYRILLKDEDHDRMYVGSKDYVLSLDLHDINREPLIIHWAASPQRIEECVLSGKDVNGECGNFVRLIQPWNRTHLYVCGTGAYNPMCTYVNRGRRAQATPWTQTQAVRGRGSRATDGALRPMPTAPRQDYIFYLEPERLESGKGKCPYDPKLDTASALINEELYAGVYIDFMGTDAAIFRTLGKQTAMRTDQYNSRWLNDPSFIHAELIPDSAERNDDKLYFFFRERSAEAPQSPAVYARIGRICLNDDGGHCCLVNKWSTFLKARLVCSVPGEDGIETHFDELQDVFVQQTQDVRNPVIYAVFTSSGSVFRGSAVCVYSMADIRMVFNGPFAHKEGPNYQWMPFSGKMPYPRPGTCPGGTFTPSMKSTKDYPDEVINFMRSHPLMYQAVYPLQRRPLVVRTGAPYRLTTIAVDQVDAADGRYEVLFLGTDRGTVQKVIVLPKDDQELEELMLEEVEVFKDPAPVKTMTISSKRQQLYVASAVGVTHLSLHRCQAYGAACADCCLARDPYCAWDGQACSRYTASSKRRSRRQDVRHGNPIRQCRGFNSNANKNAVESVQYGVAGSAAFLECQPRSPQATVKWLFQRDPGDRRREIRAEDRFLRTEQGLLLRALQLSDRGLYSCTATENNFKHVVTRVQLHVLGRDAVHAALFPPLSMSAPPPPGAGPPTPPYQELAQLLAQPEVGLIHQYCQGYWRHVPPSPREAPGAPRSPEPQDQKKPRNRRHHPPDT
B2: Galectin-2: carbohydrate binding protein (galectin), full-length, purchased; accession P05162 (protein, UniProt P05162 1-132, looked up)
chain: MTGELEVKNMDMKPGSTLKITGSIADGTDGFVINLGQGTDKLNLHFNPRFSESTIVCNSLDGSNWGQEQREDHLCFSPGSEVKFTVTFESDKFKVKLPDGHELTFPNRLGHSHLSYLSVRGGFNMSSFKLKE
modifications: full-length
B3: Semaphorin 3A: semaphorin (protein, UniProt Q14563 21-771, looked up)
Semaphorin-3A: NYQNGKNNVPRLKLSYKEMLESNNVITFNGLANSSSYHTFLLDEERSRLYVGAKDHIFSFDLVNIKDFQKIVWPVSYTRRDECKWAGKDILKECANFIKVLKAYNQTHLYACGTGAFHPICTYIEIGHHPEDNIFKLENSHFENGRGKSPYDPKLLTASLLIDGELYSGTAADFMGRDFAIFRTLGHHHPIRTEQHDSRWLNDPKFISAHLISESDNPEDDKVYFFFRENAIDGEHSGKATHARIGQICKNDFGGHRSLVNKWTTFLKARLICSVPGPNGIDTHFDELQDVFLMNFKDPKNPVVYGVFTTSSNIFKGSAVCMYSMSDVRRVFLGPYAHRDGPNYQWVPYQGRVPYPRPGTCPSKTFGGFDSTKDLPDDVITFARSHPAMYNPVFPMNNRPIVIKTDVNYQFTQIVVDRVDAEDGQYDVMFIGTDVGTVLKVVSIPKETWYDLEEVLLEEMTVFREPTAISAMELSTKQQQLYIGSTAGVAQLPLHRCDIYGKACAECCLARDPYCAWDGSACSRYFPTAKRRTRRQDIRNGDPLTHCSDLHHDNHHGHSPEERIIYGVENSSTFLECSPKSQRALVYWQFQRRNEERKEEIRVDDHIIRTDQGLLLRSLQQKDSGNYLCHAVEHGFIQTLLKVTLEVIDTEHLEELLHKDDDGDGSKTKEMSNSMTPSQKVWYRDFMQLINHPNLNTMDEFCEQVWKRDRKQRRQRPGHTPGNSNKWKHLQENKKGRNRRTHEFERAPRSV

What was measured:
Type in all cases: cell-based, human
Neutrophils = assay: High throughput transmigration assay (Example 9), chemorepulsion; conditions: Neutrophils; mean of three donors at concentration of highest activity; range 0.01-10 μM
CD8+ = assay: as above; conditions: mean of three donors at concentration of highest activity
Source text: (§1) An agent's repellent index is the ratio of chemorepulsion (CR) to spontaneous migration (SM) induced by the agent, i.e., [(CR)/(SM)]. […] For example, in calculating a RI for an agent, migratory responses including chemorepulsion (CR) and spontaneous migration (SM) may be measured over several decades or log scales of concentration. If, over any two consecutive measurements at concentrations which differ by at least 10 fold, the ratio of CR to SM at each of the two contiguous measurements is equal to or greater than 1.2, then the agent is considered a validated chemorepellent.
(§2) For primary human T cells, up to 80 ml of blood is drawn from a human donor in sodium heparin Vacutainer tubes (Becton-Dickinson). The blood (between 10 and 15 ml per tube) is then layered onto 30 ml of Lymphocyte Separation Medium (LSM) (Cellgro, Herndon, Va.) in a 50 ml conical centrifuge tube and centrifuged for 20 minutes at 2440×g in a swinging bucket rotor. After removing the majority of the plasma from the top of each tube, the peripheral blood mononucleocyte (PBMC) layer is removed and transferred to fresh 50 ml conical centrifuge tubes. The tubes are then filled to 50 ml with IMDM and centrifuged for 10 minutes at 500×g. All but approximately 5 ml of the supernatant is then removed and the pellet resuspended with 25 ml IMDM and the centrifugation repeated. After removal of the supernatant, the cells are resuspended and combined to one 50 ml tube (per subject) and brought to a total volume of 50 ml. The cells are then counted using a hemacytometer (Reichert). After centrifugation under the same conditions, the supernatant is removed and the cells processed using the appropriate Miltenyi Biotec (Auburn, Calif.) negative selection kit to enrich for the desired cell type according to manufacturers instructions. The resulting purified cells are then diluted to 50 ml with IMDM. After centrifugation at 500×g for 10 minutes, the supernatant is removed and the cells resuspended in 15 ml IMDM supplemented with 0.5% heat inactivated fetal calf serum (FCS) (ATCC, Manassas, Va.). After another centrifugation for 10 minutes at 500×g, the supernatant is again removed and the cells resuspended in 7 ml 0.5% FCS in IMDM (assay medium) and transferred to a 15 ml conical centrifuge tube. The cells are then quantitated using a hemacytometer. When enriching for monocytes, the concentration of cells is adjusted to 2×10^7 per ml by centrifugation and removal of the appropriate volume of assay medium. For all other cell types, the tube cap is replaced with one from a 25 cm^2 tissue culture flask (Corning) and the cells stored overnight in a humidified 37° C. incubator with 5% CO2. The concentration of the cells is adjusted as for monocytes just prior to transmigration assay of Example 9.
(§3) Migration away from a chemical or biological agent (chemorepulsion (CR)) was measured using ChemoTx plates (Neuroprobe). These plates contain a planar polycarbonate or polyester membrane that has been etched and perforated so that cells can move along the etched tracks and fall through perforation holes, enabling the cells to be collected and the number of migrated cells quantified (FIGS. 5-6). Several dilutions (normally 4 in 10-fold increments) are prepared of the agent of interest. For neutrophils, plates with 3 μm pore membranes are used, while for all other primary cell types, 5 μm pore membranes are used. Membranes may, or may not, be coated with polyvinylpyrrolidine (PVP) as a wetting agent.
(§4) For spontaneous migration controls and chemorepulsion (CR) assays, 31 μl of assay medium is pipetted into the lower well of the transmigration apparatus (FIGS. 5-6). For spontaneous migration controls and chemoattraction (CA) assays, 29 μl of assay medium is pipetted into upper chamber of the transmigration apparatus (FIG. 5). For CR, the upper well assay medium contains the agent or candidate chemorepellent. […]

[1] = test system: Eo-HL60 (HL-60 clone 15 differentiated to eosinophil-like phenotype); assay: Trans-well migration assay (Example 1), net migratory response; conditions: net observed response
B cells = assay: High throughput transmigration assay (Example 9), chemorepulsion; design: key: ratio of chemorepulsion (CR) to spontaneous migration (SM), CR/SM
Source text: as §1, §2, §3, §4

Molecule | Repellent Index (Neutrophils) | Repellent Index (CD8+; range 0.01-10 μM) | Migratory Response [1] | Repellent Index (CD8+; range 0.00125-1.25 μM) | Repellent Index (B cells; 0.00125 μM, one donor, triplicate, ± SD) | Repellent Index (B cells; 0.0125 μM, one donor, triplicate, ± SD) | Repellent Index (B cells; 0.125 μM, one donor, triplicate, ± SD) | Repellent Index (B cells; 1.25 μM, one donor, triplicate, ± SD) | Repellent Index (B cells; mean of three donors at concentration of highest activity, range 0.01-10 μM)
B1 | 1.8 | 1.3 |  |  |  |  |  |  | 
B2 |  |  | chemorepulsion | 1.5 |  |  |  |  | 
B3 |  | 1.3 |  |  | 1.87 ± 0.40 | 2.07 ± 0.52 | 2.39 ± 0.71 | 2.16 ± 0.28 | 1.6
